Results on eight molecules are retold here after US20150037348A1 (AbbVie / Abbott, published 2015).

Sequences and labels used below:
T1: human IL-12 (human, UniProt P29459 23-219; P29460 23-328)
T1 construct: recombinant human IL-12 heterodimer (p35/p40, disulfide-linked); also called hIL-12; rhIL-12
T1 sequence (looked up) 1: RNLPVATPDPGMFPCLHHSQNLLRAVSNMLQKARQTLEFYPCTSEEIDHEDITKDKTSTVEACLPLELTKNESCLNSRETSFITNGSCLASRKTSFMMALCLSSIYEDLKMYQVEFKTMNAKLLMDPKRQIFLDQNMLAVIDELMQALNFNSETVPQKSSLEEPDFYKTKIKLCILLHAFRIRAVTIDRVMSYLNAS
T1 sequence (looked up) 2: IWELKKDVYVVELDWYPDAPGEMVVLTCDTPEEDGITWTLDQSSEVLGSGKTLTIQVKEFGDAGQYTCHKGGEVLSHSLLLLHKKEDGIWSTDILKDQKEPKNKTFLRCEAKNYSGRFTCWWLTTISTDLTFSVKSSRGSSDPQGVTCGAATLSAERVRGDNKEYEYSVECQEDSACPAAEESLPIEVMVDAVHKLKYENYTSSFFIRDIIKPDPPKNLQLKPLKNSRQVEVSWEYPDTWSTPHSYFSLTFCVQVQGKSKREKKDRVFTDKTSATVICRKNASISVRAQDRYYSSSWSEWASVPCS

B1: 31-A6 (scFv, V domains shown)
VH: QVQLVQSGGGVVQPGRSLRLSCAASGFTFSSYGMHWVRQAPGKGLEWVAFIRYDGSNKYYADSVKGRFTISRDNSKNTLYLQMKSLRAEDTAVYYCKTHGSHDNWGQGTMVTVSS
VL: SYVLTQPPSVSGTPGQRVTISCSGGRSNIGSNTVKWYQQLPGTAPKLLIYGNDQRPSGVPDRFSGSKSGTSASLAITGVQAEDEADYYCQSYDRGTHPNLNFGTGTKVTVL
notes: scFv
B2: 43-G3 (scFv, V domains shown)
VH: QVQLVQSGGGVVQPGRSLRLSCAASGFTFSSYGMHWVRQAPGKGLEWVAFIRYDGSNKYYADSVKGRFTISRDNSKNTLYLQMKSLRAEDTAVYYCKTHGSHDNWGQGTMVTVSS
VL: SYVLTQPPSVSGTPGQRVTISCSGGRSNIGSNTVKWYQQLPGTAPKLLIYGNDQRPSGVPDRFSGSKSGTSASLAITGVQAEDEADYYCQSYDRGIWPNLNFGTGTKVTVL
notes: scFv
B3: 70-2 (scFv, V domains shown)
VH: QVQLVQSGGGVVQPGRSLRLSCAASGFTFSSYGMHWVRQAPGKGLEWVAFIRYDGSNKYYADSVKGRFTISRDNSKNTLYLQMKSLRAEDTAVYYCTTHGSYDYWGQGTMVTVSS
VL: SYVLTQPPSVSGTPGQRVTISCSGGRSNIGSNTVKWYQQLPGTAPKLLIYGNDQRPSGVPDRFSGSKSGTSASLAITGVQAEDEADYYCQSYDSSLRGSRVFGTGTKVTVL
notes: scFv
B4: 70-13 (scFv, V domains shown)
VH: QVQLVQSGGGVVQPGRSLRLSCAASGFTFSSYGMHWVRQAPGKGLEWVAFIRYDGSNKYYADSVKGRFTISRDNSKNTLYLQMKSLRAEDTAVYYCTTSGSIDYWGQGTMVTVSS
VL: SYVLTQPPSVSGTPGQRVTISCSGGRSNIGSNTVKWYQQLPGTAPKLLIYGNDQRPSGVPDRFSGSKSGTSASLAITGVQAEDEADYYCQSYDSSLRGSRVFGTGTKVTVL
notes: scFv
B5: 31-B5 (scFv, V domains shown)
VH: QVQLVQSGGGVVQPGRSLRLSCAASGFTFSSYGMHWVRQAPGKGLEWVAFIRYDGSNKYYADSVKGRFTISRDNSKNTLYLQMKSLRAEDTAVYYCKTHGSHDNWGQGTMVTVSS
VL: SYVLTQPPSVSGTPGQRVTISCSGGRSNIGSNTVKWYQQLPGTAPKLLIYGNDQRPSGVPDRFSGSKSGTSASLAITGVQAEDEADYYCQSYDRGTHPSISFGTGTKVTVL
notes: scFv
B6: 43-G2 (scFv, V domains shown)
VH: QVQLVQSGGGVVQPGRSLRLSCAASGFTFSSYGMHWVRQAPGKGLEWVAFIRYDGSNKYYADSVKGRFTISRDNSKNTLYLQMKSLRAEDTAVYYCKTHGSHDNWGQGTMVTVSS
VL: SYVLTQPPSVSGTPGQRVTISCSGGRSNIGSNTVKWYQQLPGTAPKLLIYGNDQRPSGVPDRFSGSKSGTSASLAITGVQAEDEADYYCQSYDRGSSPAIMFGTGTKVTVL
notes: scFv
B7: 101-4 (scFv, V domains shown)
VH: QVQLVQSGGGVVQPGRSLRLSCAASGFTFSSYGMHWVRQAPGKGLEWVAFIRYDGSNKYYADSVKGRFTISRDNSKNTLYLQMKSLRAEDTAVYYCTTSGSIDYWGQGTMVTVSS
VL: SYVLTQPPSVSGTPGQRVTISCSGGRSNIGSNTVKWYQQLPGTAPKLLIYGNDQRPSGVPDRFSGSKSGTSASLAITGVQAEDEADYYCQSYDSSLTGSRVFGTGTKVTVL
notes: scFv
B8: 70-7 (scFv, V domains shown)
VH: QVQLVQSGGGVVQPGRSLRLSCAASGFTFSSYGMHWVRQAPGKGLEWVAFIRYDGSNKYYADSVKGRFTISRDNSKNTLYLQMKSLRAEDTAVYYCTTRRRSNYWGQGTMVTVSS
VL: SYVLTQPPSVSGTPGQRVTISCSGGRSNIGSNTVKWYQQLPGTAPKLLIYGNDQRPSGVPDRFSGSKSGTSASLAITGVQAEDEADYYCQSYDSSLRGSRVFGTGTKVTVL
notes: scFv

This assay deals with T1, human IL-12. The experiment in a line: SPR (BIAcore), IL-12 chip. An excerpt:
The system utilizes the optical properties of SPR to detect alterations in protein concentrations within a dextran biosensor matrix. Proteins are covalently bound to the dextran matrix at known concentrations. […] To determine the off rate (koff), on rate (kₒₙ), association rate (Ka) and dissociation rate (Kd) constants, BIAcore kinetic evaluation software (version 2.1) was used.
In the case of B1, the koff was 0.0005 s⁻¹.
The same measure for B2: 0.0009 s⁻¹.
The same measure for B3: 0.033 s⁻¹; for B4: 0.072 s⁻¹; for B5: 0.0005 s⁻¹.
In the case of B6, the koff came to 0.0007 s⁻¹.
In the case of B7, the koff worked out at 0.00976 s⁻¹.
On to B8, for which the koff is 0.129 s⁻¹.

A word on the koff: it is the rate constant with which the complex falls apart. Low readings indicate slow dissociation, high ones fast dissociation.
